Results as given in PMC10009750, “Development of Selective ADAMTS-5 Peptide Substrates to Monitor Proteinase Activity” (Journal of Medicinal Chemistry, 2023).
Where “and” joins values, the source holds several entries; their conditions need not be identical. Equal values may be shown once. Non-standard residues stand in square brackets, D forms with d. No end group written: not given here. Tyr(3-NO2) = N[C@@H](Cc1ccc(O)c([N+](=O)[O-])c1)C(=O)O; 2Abz = Nc1ccccc1C(=O)O

Legend:
TS5-5 (ADAMTS-5) [1] = molecular target: T1, TS5-5 (ADAMTS-5) (Homo sapiens, UniProt Q9UNA0); assay: Determination of kinetic parameters (kcat and Km) for substrate cleavage by TS5-5, inner-filter corrected; format: biochemical
T1 construct: ADAMTS-5 (i.e. TS5-5, residues 264–555); FLAG; made in house; host or cells: HEK293 cells (previously transfected stocks)
T1 sequence (Q9UNA0 264-555): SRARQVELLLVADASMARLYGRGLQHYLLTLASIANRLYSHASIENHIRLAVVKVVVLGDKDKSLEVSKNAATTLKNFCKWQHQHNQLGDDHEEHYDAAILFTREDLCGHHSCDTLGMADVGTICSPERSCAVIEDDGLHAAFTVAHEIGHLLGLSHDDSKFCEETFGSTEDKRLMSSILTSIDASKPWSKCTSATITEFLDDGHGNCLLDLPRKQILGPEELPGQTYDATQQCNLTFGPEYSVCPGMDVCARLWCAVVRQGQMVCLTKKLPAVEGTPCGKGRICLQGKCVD
Description: A solution of Abz-TESE↓SRGAIY-Dpa-KK-NH2/3/26 (5 mM) or 19/23 (1 mM) in DMSO underwent a 2-fold serial dilution with freshly prepared TNC buffer containing 0.005% (v/v) Brij-35. This gave initial concentrations in the following range: 222.22 to 0.87 μM (Abz-TESE↓SRGAIY-Dpa-KK-NH2/3/23/26) and 177.78 to 1.39 μM (19). Eight substrate concentrations (180 μL) within these ranges (including outer numbers) were added to a 96-well black microplate in triplicate and incubated at 37 °C (20 min). TNC buffer with 0.005% (v/v) Brij-35 was added to substrate-only control wells in a single replicate (180 μL). TS5-5 proteinase was thawed from −80 or −20 °C, made up in TNC buffer with 0.005% (v/v) Brij-35 (300 nM) and added to substrate wells (20 μL). TNC buffer was added to substrate-only control wells (20 μL). Fluorescence intensity was measured at 37 °C for 1 h with readings every 20 s. The rate of substrate cleavage was determined at each substrate concentration and expressed as the mean ± SEM in μM s^–1. The subsequent data was fitted to the Michaelis–Menten eq 2: [drawing 2] 2 where v is the rate of the reaction, Vmax is the maximal rate of the reaction, Km is the Michaelis constant, and [S] is the substrate concentration. This equation enabled the Km value to be determined. The catalytic rate constant kcat was determined from eq 3: [drawing 3] 3 where [E] is the concentration of proteinase, and kcat and Vmax are as defined previously. These initial Km and kcat parameters were determined from n = 3–4 independent experiments with final values for these parameters reported after a correction for the inner-filter effect.
This was performed based on the protocol described in Liu et al.([40]) to correct for quenching of the released Abz fluorophore by uncleaved substrate. Two sets of initial substrate concentrations were prepared as described in the previous section. Both sets of substrate concentrations (180 μL) were added to a 96-well black microplate in triplicate. Two buffer-alone controls with TNC buffer containing 0.005% (v/v) Brij-35 (180 μL) were also added in triplicate. All solutions were incubated at 37 °C (20 min). Abz fluorophore (1 M) in DMSO was serially diluted to 1 mM in DMSO, before further dilution to 100 μM using TNC buffer containing 0.005% (v/v) Brij-35. TNC buffer containing 0.005% (v/v) Brij-35 (20 μL) was added to the first set of substrate concentrations as well as to the first buffer-alone control. Abz fluorophore (20 μL, 100 μM) was added to the second set of substrate concentrations as well as the second buffer-alone control. The end-point fluorescence intensity was measured at 37 °C using λex = 300 nm and λem = 430 nm. At each substrate concentration, […] to give the actual fluorescence of the Abz fluorophore (RFUAbz). These values were divided by RFUAbz at a substrate concentration of 0 μM to give the correction factor for each concentration. The rates for each substrate concentration described in the previous section were divided by their respective correction factors (Tables S6–S10) to deliver the inner-filter corrected kcat and Km values.

TS5-5 (ADAMTS-5) [2] = molecular target: T1, TS5-5 (ADAMTS-5); assay: Sensitivity studies with TS5-5; format: biochemical; conditions: 37 °C; for ΔRFU after 20 h: single experiment in triplicate; for lowest ADAMTS-5 concentration at which activity is detected: 5 μM substrate, experiments performed for ∼20 h
Description: Abz-TESE↓SRGAIY-Dpa-KK-NH2, library parent peptide 3 and hit peptide 26 (5 mM) were each diluted to two concentrations (5.56 μM and 2.78 μM) in freshly prepared TNC buffer with 0.005% (v/v) Brij-35. The two concentrations for each substrate (90 μL) were added to a 96-well black microplate in triplicate. A substrate-only background control was also added in triplicate (90 μL). The resultant solutions were incubated at 37 °C (20 min). TS5-5 proteinase was thawed from −20 °C and made up at the following concentrations in TNC buffer with 0.005% (v/v) Brij-35:10, 5, 2.5, and 1.25 nM. Each concentration of proteinase was added to substrate wells (10 μL), with buffer added to substrate-only control wells (10 μL). The relative fluorescence intensity was measured at 37 °C for 24 h, with readings every 2 min.

[3] = TS5-5, TNC buffer with 0.005% (v/v) Brij-35, 37 °C, corrected for inner filter effect, mean ± SEM from 3–4 independent experiments in triplicate
[4] = supplementary CSV copy of Table 3, TS5-5, 37 °C
[5] = TS5-5, TNC buffer with 0.005% (v/v) Brij-35, 37 °C, corrected for inner filter effect, mean ± SEM from 3–4 independent experiments in triplicate, listed as current substrate

Substance	decrease in Km compared to the current substrate (TS5-5 (ADAMTS-5) [1]; TS5-5)	higher catalytic efficiency (kcat/Km) compared to the current substrate (TS5-5 (ADAMTS-5) [1]; TS5-5)	Km (TS5-5 (ADAMTS-5) [1]; [3])	kcat (TS5-5 (ADAMTS-5) [1]; [3])	kcat/Km (TS5-5 (ADAMTS-5) [1]; [3])	kcat (TS5-5 (ADAMTS-5) [1]; [4])	ΔRFU after 20 h (TS5-5 (ADAMTS-5) [2]; 0.25 nM TS5-5, substrate 5 μM)	ΔRFU after 20 h (TS5-5 (ADAMTS-5) [2]; 0.5 nM TS5-5, substrate 5 μM)	ΔRFU after 20 h (TS5-5 (ADAMTS-5) [2]; 1 nM TS5-5, substrate 5 μM)	lowest ADAMTS-5 concentration at which activity is detected (TS5-5 (ADAMTS-5) [2])	lower catalytic rate constant (kcat) compared to the current substrate (TS5-5 (ADAMTS-5) [1]; TS5-5)	kcat (TS5-5 (ADAMTS-5) [1]; [5])	kcat/Km (TS5-5 (ADAMTS-5) [1]; [5])
KY(NO2)SENESRGK(Abz)IYYKKG (K[Tyr(3-NO2)]SENESRGK(2Abz)IYYKKG) [Compound 26]	~2 fold	~1.5 fold	76.9 ± 6.4 µM	3.32 s⁻¹ and 3.32 ± 0.31 s⁻¹	44400 M⁻¹ s⁻¹ and 44400 ± 6690 M⁻¹ s⁻¹	3.32 ± 0.31 s⁻¹	> 30	> 100	> 100	0.25 nM			
KY(NO2)TESESRGK(Abz)IYYKKG (K[Tyr(3-NO2)]TESESRGK(Abz)IYYKKG) [Compound 3]	~4 fold	~2 fold	29.5 ± 1.7 µM	1.87 s⁻¹ and 1.87 ± 0.15 s⁻¹	63200 M⁻¹ s⁻¹ and 63200 ± 1840 M⁻¹ s⁻¹	1.87 ± 0.15 s⁻¹	> 30	> 100	> 100	0.25 nM	~2 fold		
Abz-TESE↓SRGAIY-Dpa-KK-NH2 [current, ortho-aminobenzoyl(Abz)-TESE↓SRGAIY-N-3-[2,4-dinitrophenyl]-L-2,3-diaminopropionyl(Dpa)-KK-NH2, reference compound]			125 ± 5 µM	3.61 ± 0.31 s⁻¹	29100 ± 3090 M⁻¹ s⁻¹	3.61 ± 0.31 s⁻¹	no longer able to detect TS5-5 activity above background fluorescence	59	> 100			3.61 s⁻¹	29100 M⁻¹ s⁻¹
